Positions count from the first letter of the chain named. Several values for one entry are separate records, joined by “and”; a condition that tells them apart may be missing. Equal entries are not always repeated.

One test addresses T1, IL-1β (UniProt P01584 117-269).
T1 construct: Purchased coating factor
In words: indirect ELISA, factor coated at 1 µg/ml. The procedure: (§1) The specific experimental process is as follows: C5, C3, C3b, rIFN γ (recombinant human interferon γ), IL-1α, IL-1β, IL-2, IL-4 and IL-8 (purchased from Inshore Technology, respectively) were mixed with PBS. Co., Ltd.), dilute the antigen to 1 μg/ml; add 100 μl/well of the diluted antigen to a 96-well plate, cover, overnight at 4° C.; shake off the liquid in the well, wash three times with PBS, 200 μl/well, manually Pat dry; block with 200 μl/well of 5% milk, block for 1 h, tap the edge of the ELISA plate every 15 minutes to promote the reaction; shake off the liquid in the well, wash once with PBS, 200 μl/well, pat dry by hand; add different light chains Heavy chain combination antibody, diluted in 5% milk, 100 μl/well, incubated for 1 h, tap the edge of the ELISA plate every 15 min to promote the reaction; shake off the liquid in the well, wash three times with PBS, 200 μl/well, pat dry by hand; add Goat anti-human secondary antibody, diluted in 5% milk, 100 μl/well; incubate for 1 h, tap the edge of the ELISA plate every 15 min to promote the reaction; preheat the TMB substrate at room temperature, and turn on the microplate reader to preheat; wash 5 times with PBS, 250 μl/well, the first three times 5 min, the last two times 10 min, pat dry by hand; add 50 μl/well of TMB substrate AB to each well, and develop color at room temperature for 20 min; use a scanner to scan and record the pictures, add 50 μl/well of stop solution, use enzyme The standard instrument reads OD450 and archives.
A general note: An ELISA detects its analyte on a solid surface through an enzyme-linked reagent.

Another test concerns the target T2, IL-1α (UniProt P01583 113-271).
T2 construct: Purchased coating factor
T2 sequence (looked up): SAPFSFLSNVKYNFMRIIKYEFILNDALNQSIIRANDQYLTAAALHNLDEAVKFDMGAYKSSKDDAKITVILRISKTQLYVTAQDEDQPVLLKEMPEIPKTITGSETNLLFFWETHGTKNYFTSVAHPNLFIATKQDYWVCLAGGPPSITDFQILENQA
The test can be described thus: indirect ELISA, factor coated at 1 µg/ml. On the procedure: as §1

The next test has as its target T3, C3 (UniProt P01024 23-1663, limits assumed).
T3 construct: Purchased coating factor
In words: indirect ELISA, factor coated at 1 µg/ml. The procedure:
as §1

The target in the next test is T4, IL-8 (UniProt P10145 28-99, limits assumed).
T4 construct: Purchased coating factor
T4 sequence (looked up): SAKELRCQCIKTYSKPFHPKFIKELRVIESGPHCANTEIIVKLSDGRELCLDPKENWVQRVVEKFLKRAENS
In words: indirect ELISA, factor coated at 1 µg/ml. The procedure: as §1

Another test has as its target T5, IL-2 (UniProt P60568 21-153).
T5 construct: Purchased coating factor
The test can be described thus: indirect ELISA, factor coated at 1 µg/ml. On the procedure:
as §1

The next test has as its target T6, IL-4 (UniProt P05112 25-153).
T6 construct: Purchased coating factor
T6 sequence (looked up): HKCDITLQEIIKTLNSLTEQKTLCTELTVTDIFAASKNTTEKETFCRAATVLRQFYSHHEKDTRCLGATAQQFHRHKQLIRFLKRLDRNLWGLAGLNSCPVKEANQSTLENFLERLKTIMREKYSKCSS
The test can be described thus: indirect ELISA, factor coated at 1 µg/ml. The procedure: as §1

Test [1] concerns the target T7, rIFN γ (recombinant human interferon γ) (human, UniProt P01579 24-166, limits assumed).
T7 construct: Purchased coating factor
T7 sequence (looked up): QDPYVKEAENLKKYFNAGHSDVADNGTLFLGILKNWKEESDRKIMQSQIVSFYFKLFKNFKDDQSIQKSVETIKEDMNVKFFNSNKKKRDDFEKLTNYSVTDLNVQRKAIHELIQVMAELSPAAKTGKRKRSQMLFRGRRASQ
The test can be described thus: indirect ELISA, factor coated at 1 µg/ml. On the procedure:
as §1

The next test concerns the target T8, complement protein C5 (human, UniProt P01031 19-1676, limits assumed).
T8 construct: Purchased antigen coated on the ELISA plate; Natural C5 is processed into beta and alpha chains from one precursor; also called human C5
In words: indirect ELISA, C5 coated at 0.3 µg/ml. On the procedure:
The experimental method is as follows: Dilute the antigen with C5 (purchased from Nearshore Technology Co., Ltd.) to 0.3 μg/ml with PBS; add 100 μl/well of the diluted antigen to a 96-well plate, cover, overnight at 4° C.; shake off The liquid in the well was washed three times with PBS, 200 μl/well, and patted dry; blocked with 5% milk-PBS 200 μl/well for 1 hour, and tapped every 15 minutes; the liquid in the well was shaken off, washed once with PBS, 200 μl/well, and patted dry; Add purified antibody (0-10 μg/ml) in a gradient, see Table 4 for antibody name, 5% milk-PBS dilution, 100 μl/well, incubate for 1 h, tap every 15 min; shake off the liquid in the well, wash three times with PBS, 200 μl/well, pat dry; add secondary antibody, diluted in 5% milk-PBS, 100 μl/well, incubate for 1 h, tap every 15 min; preheat TMB substrate at room temperature, and turn on the microplate reader to preheat; wash 5 times with PBS, 250μl/well, the first three times 5 min, the last two times 10 min, pat dry; add 50 μl/well of TMB substrate AB each, and develop color at room temperature for 20 min; use a scanner to scan and record the picture, add 50 μl/well of stop solution, use enzyme labeling The meter reads OD450.

T5 sequence (P60568 21-153 limits assumed): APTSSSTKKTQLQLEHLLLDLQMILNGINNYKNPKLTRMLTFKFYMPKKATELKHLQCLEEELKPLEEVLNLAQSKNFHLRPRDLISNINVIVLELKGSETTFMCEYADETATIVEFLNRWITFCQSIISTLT
T3 sequence (P01024 23-1663 limits assumed): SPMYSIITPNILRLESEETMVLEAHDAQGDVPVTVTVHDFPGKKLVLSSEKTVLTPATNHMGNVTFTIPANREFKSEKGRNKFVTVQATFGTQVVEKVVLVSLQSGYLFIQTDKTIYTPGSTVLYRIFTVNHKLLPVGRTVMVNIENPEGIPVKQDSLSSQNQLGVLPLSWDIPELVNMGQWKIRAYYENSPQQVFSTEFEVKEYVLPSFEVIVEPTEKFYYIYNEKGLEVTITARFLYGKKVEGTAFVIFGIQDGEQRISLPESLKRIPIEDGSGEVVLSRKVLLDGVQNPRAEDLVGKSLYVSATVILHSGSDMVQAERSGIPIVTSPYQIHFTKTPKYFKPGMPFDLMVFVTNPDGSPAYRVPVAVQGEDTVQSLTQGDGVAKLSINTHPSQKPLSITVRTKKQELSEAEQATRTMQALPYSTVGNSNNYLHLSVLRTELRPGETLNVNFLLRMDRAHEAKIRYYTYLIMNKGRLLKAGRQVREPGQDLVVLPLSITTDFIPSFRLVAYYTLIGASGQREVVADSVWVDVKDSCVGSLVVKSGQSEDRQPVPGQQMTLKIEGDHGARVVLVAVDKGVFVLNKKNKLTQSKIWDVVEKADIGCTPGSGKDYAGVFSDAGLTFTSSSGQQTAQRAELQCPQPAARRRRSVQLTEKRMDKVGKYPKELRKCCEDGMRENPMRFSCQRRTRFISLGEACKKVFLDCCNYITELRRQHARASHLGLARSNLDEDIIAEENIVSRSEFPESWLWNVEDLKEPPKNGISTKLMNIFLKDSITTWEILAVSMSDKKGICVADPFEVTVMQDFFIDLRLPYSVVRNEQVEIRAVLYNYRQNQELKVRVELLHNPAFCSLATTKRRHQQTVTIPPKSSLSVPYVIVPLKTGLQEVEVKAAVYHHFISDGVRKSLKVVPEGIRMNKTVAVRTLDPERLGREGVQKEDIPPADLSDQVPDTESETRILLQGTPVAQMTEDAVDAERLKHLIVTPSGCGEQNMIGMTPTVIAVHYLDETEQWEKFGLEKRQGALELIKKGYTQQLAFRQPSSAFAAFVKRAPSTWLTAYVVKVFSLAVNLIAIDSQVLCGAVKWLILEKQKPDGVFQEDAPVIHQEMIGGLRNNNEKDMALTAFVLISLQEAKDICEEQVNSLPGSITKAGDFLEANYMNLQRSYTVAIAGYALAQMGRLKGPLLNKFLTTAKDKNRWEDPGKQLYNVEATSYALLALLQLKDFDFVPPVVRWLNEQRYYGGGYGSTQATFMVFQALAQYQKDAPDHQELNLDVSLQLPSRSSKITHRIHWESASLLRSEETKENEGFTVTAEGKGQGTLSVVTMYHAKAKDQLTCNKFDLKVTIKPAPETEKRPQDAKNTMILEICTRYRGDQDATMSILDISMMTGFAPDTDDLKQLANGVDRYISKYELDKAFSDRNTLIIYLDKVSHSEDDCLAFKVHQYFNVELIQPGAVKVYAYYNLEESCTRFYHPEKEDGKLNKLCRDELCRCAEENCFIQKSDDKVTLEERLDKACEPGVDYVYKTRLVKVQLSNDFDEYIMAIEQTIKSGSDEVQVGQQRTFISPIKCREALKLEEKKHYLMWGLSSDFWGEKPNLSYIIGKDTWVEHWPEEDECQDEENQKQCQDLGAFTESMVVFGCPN
T8 sequence (P01031 19-1676 limits assumed): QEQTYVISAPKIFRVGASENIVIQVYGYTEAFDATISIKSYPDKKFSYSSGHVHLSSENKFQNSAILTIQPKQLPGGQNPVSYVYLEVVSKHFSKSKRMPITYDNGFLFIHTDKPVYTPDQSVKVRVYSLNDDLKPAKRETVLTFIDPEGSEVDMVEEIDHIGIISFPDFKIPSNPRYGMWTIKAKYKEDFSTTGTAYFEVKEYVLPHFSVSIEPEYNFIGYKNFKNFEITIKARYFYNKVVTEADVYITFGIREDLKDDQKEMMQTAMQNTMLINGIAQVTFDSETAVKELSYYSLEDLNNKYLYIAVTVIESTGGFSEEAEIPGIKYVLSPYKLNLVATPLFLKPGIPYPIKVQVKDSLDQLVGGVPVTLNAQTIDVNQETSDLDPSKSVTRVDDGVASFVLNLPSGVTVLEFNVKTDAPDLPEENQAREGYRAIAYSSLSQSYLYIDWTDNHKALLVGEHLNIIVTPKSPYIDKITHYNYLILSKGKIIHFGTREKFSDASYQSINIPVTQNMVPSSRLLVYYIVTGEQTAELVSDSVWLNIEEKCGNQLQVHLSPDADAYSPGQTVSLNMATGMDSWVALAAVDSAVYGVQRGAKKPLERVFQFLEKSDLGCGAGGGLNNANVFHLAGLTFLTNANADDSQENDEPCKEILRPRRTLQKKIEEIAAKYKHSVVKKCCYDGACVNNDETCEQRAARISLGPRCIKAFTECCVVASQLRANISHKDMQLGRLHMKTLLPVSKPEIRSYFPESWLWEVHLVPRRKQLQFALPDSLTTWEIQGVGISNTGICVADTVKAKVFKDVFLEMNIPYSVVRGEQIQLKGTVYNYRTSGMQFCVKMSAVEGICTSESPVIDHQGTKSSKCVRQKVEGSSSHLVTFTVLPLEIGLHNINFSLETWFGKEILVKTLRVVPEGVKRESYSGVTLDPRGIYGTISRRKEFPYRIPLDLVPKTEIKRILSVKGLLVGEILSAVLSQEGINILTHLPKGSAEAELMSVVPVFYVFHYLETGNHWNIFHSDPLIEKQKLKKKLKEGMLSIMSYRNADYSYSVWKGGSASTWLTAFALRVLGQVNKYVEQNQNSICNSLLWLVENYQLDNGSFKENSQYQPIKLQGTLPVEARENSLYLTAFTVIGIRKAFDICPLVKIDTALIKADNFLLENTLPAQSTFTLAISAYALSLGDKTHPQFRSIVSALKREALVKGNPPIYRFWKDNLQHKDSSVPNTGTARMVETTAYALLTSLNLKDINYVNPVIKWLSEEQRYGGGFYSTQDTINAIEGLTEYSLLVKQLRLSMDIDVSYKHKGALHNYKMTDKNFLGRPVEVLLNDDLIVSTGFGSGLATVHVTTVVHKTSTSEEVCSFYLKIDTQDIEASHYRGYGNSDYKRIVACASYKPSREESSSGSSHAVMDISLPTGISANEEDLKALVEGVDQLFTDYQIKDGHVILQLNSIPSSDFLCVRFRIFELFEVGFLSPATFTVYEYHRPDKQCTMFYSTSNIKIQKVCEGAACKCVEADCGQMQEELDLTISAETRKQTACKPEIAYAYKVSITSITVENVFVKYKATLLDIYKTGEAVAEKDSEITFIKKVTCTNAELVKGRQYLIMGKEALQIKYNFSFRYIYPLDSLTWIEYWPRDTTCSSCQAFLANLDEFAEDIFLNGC

B1: Improved Eculizumab monoclonal antibody H1L0 (antibody, human IgG1, kappa, V domains shown)
VH: QVQLVQSGGGVVQPGASVKVSCKASGYIFSNYWIQWVRQAPGQGLEWMGEILPGSGSTEYTENFKDRVTMTRDTSTSTVYMELSSLRSEDTAVYYCARYFFGSSPNWYFDVWGQGTLVTVSS
VL: DIQMTQSPSSLSASVGDRVTITCGASENIYGALNWYQQKPGKAPKLLIYGATNLADGVPSRFSGSGSGTDFTLTISSLQPEDFATYYCQNVLNTPLTFGQGTKVEIKR
notes: also called Improved H1L0; H1L0 (Improved)
Consider B1, for which the binding result with IL-1β, with IL-1α, with C3, with IL-8, with IL-2 and with IL-4 was “no binding” each time. The binding result in test [1] is “no binding”. In addition, in the test with complement protein C5, the concentration for a half-maximal effect (EC50) (in general, the concentration that produces a half-maximal response) is 0.00382 µg/mL and 0.0255 nM.

B2: Improved Eculizumab monoclonal antibody H3L0 (antibody, human IgG1, kappa, V domains shown)
VH: B1 VH with M70L, R72T, T74S, S77T, V79A, S84K, R87Q, S88F, E89D
VL: B1 VL
notes: also called Improved H3L0; H3L0 (Improved)
Take B2: the binding result with IL-1β, with IL-1α, with C3, with IL-8, with IL-2 and with IL-4 was “no binding” throughout. The binding result in test [1] is “no binding”.

Values taken from patent US20240067745A1 (ABMAX BIOTECHNOLOGY, published 2024).
